Test results published in paper PMC7360965 (The EMBO Journal, 2020).
Residue numbers refer to the chain shown, from its start. Numbers in names are those of the source. Blank lines part the entries; values can stand above or below the binder they belong to. Ends that are not written are not given here.

Biological target: F-actin (filamentous actin), actin purified from chicken breast (Gallus gallus) (chicken (Gallus gallus), UniProt P68139 1-377)
Assay: co-sedimentation
Conditions: both partners purified

B1: FAM-lifeAct-17 peptide (full-length lifeAct) (peptide)
peptide: MGVADLIKKFESISKEE
modifications: also: FAM label, position not given here
notes: also called lifeAct peptide; source: synthetic peptide (custom synthesized, LifeTein, USA)
Kd: 2.2 µM

B4: Human UTRN-ABD (amino acids 1-261) N109A (domain or fragment)
chain: MAKYGEHEASPDNGQNEFSDIIKSRSDEHNDVQKKTFTKWINARFSKSGKPPINDMFTDLKDGRKLLDLLEGLTGTSLPKERGSTRVHALNNVNRVLQVLHQNNVELVAIGGTDIVDGNHKLTLGLLWSIILHWQVKDVMKDVMSDLQQTNSEKILLSWVRQTTRPYSQVNVLNFTTSWTDGLAFNAVLHRHKPDLFSWDKVVKMSPIERLEHAFSKAQTYLGIEKLLDPEDVAVQLPDKKSIIMYLTSLFEVLPQQVTID
notes: source: E. coli Rosetta DE3, purified (His-Trap, Superdex-200)
Kd: 55 µM

B5: Human UTRN-ABD (amino acids 1-261) I22D (domain or fragment)
chain: B4 chain with I22D, A109N
notes: as for B4
Kd: 38 µM

Second part, the binder after the results:

Kd: 2.8 µM
B2: Human UTRN-ABD (amino acids 1-261) H29A (domain or fragment)
chain: B4 chain with H29A, A109N
notes: as for B4

Kd: > 100 µM
B3: Human UTRN-ABD (amino acids 1-261) V87D (domain or fragment)
chain: B4 chain with V87D, A109N
notes: also called UTRN-V87D; source: E. coli Rosetta DE3, purified (His-Trap, Superdex-200)

Kd: 1.2 µM
B6: FAM-lifeAct-14 peptide (carboxy-terminal truncated version of lifeAct) (peptide)
peptide: MGVADLIKKFESIS
modifications: not fully specified (N-terminus); also: FAM label, position not given here
notes: source: synthetic peptide (custom synthesized, LifeTein, USA)
